Test: yeast display, Sf9 membrane polyspecificity reagent, FACS + sequencing; frameworks hold sequencing errors
Procedure, shortened: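 Sorting gates, low and high (top ~1%), were placed on anti-HA fluorescence to track expression and on streptavidin fluorescence to track reagent binding. A clone's polyreactivity label is taken from the gate it came out of. The reagent was 10% biotinylated, detergent-solubilized Sf9 membrane, applied for 1 hour at 4 °C to galactose-induced yeast display cells.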

| Sequence | polyreactivity (PSR sort gate) |
| --- | --- |
| QVQLVESGGGLVQAGGSLRLSCAASGFTFYSNAMGWYRQAPGKERELVAAINWGGGSTYYADSVKGRFTISRDNAKNTVYLQMNSLKPEDTAVYYCAAEPIWEYWNGVSYAYDYWGQGTQVTVSS | low polyreactivity |
| QVQLVESGGGLVQAGGSLRLSCAASGFTFYSNAMGWYRQAPGKERELVAAISYSGGSTYYADSVKGRFTISRDNAKNTVYLQMNSLKPEDTAVYYCAAGGLQQGDYWGQGTQVTVSS | low polyreactivity |
| QVQLVESGGGLVQAGGSLRLSCAASGFTFYSNAMGWYRQAPGKEREMVATITASGGSTYYADSVKGRFTNSRDNAKYTVYVQMYSLKPEDTAVYYCAKDLYWYYRRRGQYVYWGQGTQVTVSS | high polyreactivity |
| QVQLVESGGGLVQAGGSLRLSCAASGFTFYSYAMGWNRQAPGKERELVAAISGGGGSTYYADSVKGRFTISRDNAKNTVYLQMNSLKPEDTAVYYCAKRPAYRGYGLGYYWGQGTQVTVSS | high polyreactivity |
| QVQLVESGGGLVQAGGSLRLSCAASGFTFYSYAMGWYRQAPGKERELVAAISRSGGRTYYADSVKGRFTISRDNAKNTVYLQMNSLKPEDTAVYYCAAEAYGPYSYSYSPYGYYYWGQGTQVTVSS | high polyreactivity |
| QVQLVESGGGLVQAGGSLRLSCAASGFTFYSYAMGWYRQAPGKERELVAAISWSGTRTYYADSVKGRFTISRDNAKNTVYLQMNSLKPVDTAVYDCAADTRRWARGYDYWGQGTQVTVSS | high polyreactivity |
| QVQLVESGGGLVQAGGSLRLSCAASGFTFYSYAMGWYRQEPGKEREFVAAITSRGGSTYYADSVKGRFTISRDNAKNTVYLQMNSLKPEDNAVYYCAAYAGYSDQARYYYWGQGTQVTVSS | high polyreactivity |
| QVQLVESGGGLVQAGGSLRLSCAASGFTFYSYTMGWYRQAPGKERELVAAISGRSVRTYYADSVKGRFTISRDNAKNTVYLQMNSLKPEDTAVYYCARAYYWRTSWYNYWGQGTQVTVSS | high polyreactivity |
| QVQLVESGGGLVQAGGSLRLSCAASGFTFYTNAMGWYRQAPGKEREFVAAISFSGGTYYADSVKGRFTISRDNAKNTVYLQMNSLKPEDTAVYYCNARYPRYYRGVIQYDYWGQGTQVTVSS | low polyreactivity |
| QVQLVESGGGLVQAGGSLRLSCAASGFTFYTNTMGWYRQAPGKERELVAAISSGGSTYYADSVKGRFTISLDNAKNTVYLKMNSLKPEVTAVYYCAVYGPWAYYPMGYWGQGTQVTVSS | low polyreactivity |
| QVQLVESGGGLVQAGGSLRLSCAASGFTFYTYAMGWYRHAPGKERELVAAITSSGGSTYYADSVKGRFTISRDNAKNSVYLQMNSLKPEDTAVYYCKAVSYYLGDDYWGQGTQVNVSS | high polyreactivity |
| QVQLVESGGGLVQAGGSLRLSCAASGFTFYTYAMGWYRPAPGKERELVATITIGDGSTYYADSVKGRFTISRDNAKNTVYLQMNSLKPEDTAVYYCNRDSVGYDYWGQGSQVTVSS | low polyreactivity |
| QVQLVESGGGLVQAGGSLRLSCAASGFTFYTYVMGWYRQAPGKERELVAAISGRGGSTYYADSVKGRFTISRDNAKNTVYLQMNSLKPEDTAVYYCATVRSYSRVVGYDYWGQGTQVTVSS | high polyreactivity |
| QVQLVESGGGLVQAGGSLRLSCAASGFTFYVNVMGWYRQPPGKEREFVAAIRTRGASTYYADSVKGRFTISRDNAKNTVYLQMNSLKPEDTADYYCAAGWFWNYWYGVSMDYWGQGTQVTVSS | high polyreactivity |
| QVQLVESGGGLVQAGGSLRLSCAASGFTFYVYAMGWYRQAPGKERELVAAISKSGGSTYYADSVKGRFTISRDNAKNTVYLQMNSLKPEDTAVYYCAVYDKRSGYRGGHRYNSWGQGTQVTVSS | high polyreactivity |
| QVQLVESGGGLVQAGGSLRLSCAASGFTFYWYAMGWYRQAPGKERELVAAITRSGSSTYYADSVKGRFTISRDNAKNTVYLQMNSLKPEDTAVYYCAKAYRPPGYDSWGQGTQVTVSS | high polyreactivity |
| QVQLVESGGGLVQAGGSLRLSCAASGFTFYYNAMGWYRQAPGKERELGASITRSGGRTYYADSVKGRFTISRDYAKNTVYLQMNSLKPEDTAVYYCARRYPGGYYWGQGTHVTVSS | high polyreactivity |
| QVQLVESGGGLVQAGGSLRLSCAASGFTFYYYALGWYRQAPGKERELVAAISTRDGNTYYADSVKGRFTISRDNAKNTVYLQMNSLKPEDTAVYYCAADSYSGYNYWGQGTQVTVSS | low polyreactivity |
| QVQLVESGGGLVQAGGSLRLSCAASGFTFYYYAMGWYRQAPGKERELVAAITSSGGRTYYADSVKGRFTISRDNAKNTVYLQMNSLKPEDTAVYYCAATGFYHRGEYYYWGQGTQVTVSS | low polyreactivity |
| QVQLVESGGGLVQAGGSLRLSCAASGFTFYYYAMGWYRQAPGKERELVAAITWSGDSTNYADSVKGRFTISRDNAKNSVYLQMNSLKPEDTAVYYCATESYDSYGLYDYWGQGTQVTVSS | low polyreactivity |
| QVQLVESGGGLVQAGGSLRLSCAASGFTFYYYAMGWYRQAPGKERELVAGINSDGNTYYADSVKGRFTISRDNAKNTVYLQMNSLKPEDTAVYYCAARKLWPKNFVRHDYWGQGTQVTVSS | low polyreactivity |
| QVQLVESGGGLVQAGGSLRLSCAASGFTFYYYAMGWYRQAPGKERELVARITSGGSTYYADSVKGRFTISRDNAMYTVYLQMNCLKPEDTAVYYCNVDVSVEVAYWGQGTQVTVSS | low polyreactivity |

| Sequence | polyreactivity (PSR sort gate) |
| --- | --- |
| QVQLVESGGGLVQAGGSLRLSCAASGFTFYYYAMGWYRQAPGKERELVAVITSGGNTYYADSVKGRFTISRDNAKNNVYLQMNSLKPEDTAVYYCAKDVSDPFYDPFEYWGQGTQVTVSS | low polyreactivity |
| QVQLVESGGGLVQAGGSLRLSCAASGFTFYYYAMGWYRQAPGTEMELVAALSRSGVRTYYADSVNGRFTISRDNGKNTVYLQMTSLKPEDTAVYYCAAEFARSRMNYWGQGTKVTVSS | high polyreactivity |
| QVQLVESGGGLVQAGGSLRLSCAASGFTHDWYAMGWYRQAPGKERELVAAIWSAGTTYYADSVKGRFTISRDNAMNTVYLQMNSLKPEDPAVYYCATVSDYDFGLYDYWGQGTQVTVSS | low polyreactivity |
| QVQLVESGGGLVQAGGSLRLSCAASGFTIAYYAMGWYRQAPGKERELVAAITTSGSTYYADSVKGRFTISRDNAQNTVYLQMNSLKPEDTAVYYCAVSIWGWFASGFDYWGQGTQVTVSS | high polyreactivity |
| QVQLVESGGGLVQAGGSLRLSCAASGFTIDAYAMGWYRQAPGKDRELVAAISGSGGSTYYADSVKGRFTISRDNAKNTVYLQMNSLKPEDTALYYCAKDPGPYDYDYWGQGTQVTVSS | low polyreactivity |
| QVQLVESGGGLVQAGGSLRLSCAASGFTIDLYAMGWYRQAPGKERELVAAISIRGGSTYYADSVKGRFTISRDNAKNTVYLQMNSLKPEDTAVYYCATVTSRRSYIAYRGTGDYDYWGQGTQVTVSS | low polyreactivity |
| QVQLVESGGGLVQAGGSLRLSCAASGFTIFYYAMGWYRQAPGKERELVASISWSGGSTYYADSVMGRFTISRENAKNSVYLQMNSLKPEDTAVYYCAADVPFGGDYWGQGTQVTVSS | low polyreactivity |
| QVQLVESGGGLVQAGGSLRLSCAASGFTISRYAMGWYRQAPGKERELVAAITWSGVSTYYADSVKGRFTISRDNAKNTVYLQMNSRKPEDTAVYYCAATTYSSSSSHDYWGQGTQVTVSS | low polyreactivity |
| QVQLVESGGGLVQAGGSLRLSCAASGFTISVYAMGWYRQAPGKERELVAAISWNGGRTYYAVSVKGRFTISRDNAKNTVYLQMNSLKPEDSAVYYCNKVSGYDVDYWGQGTQVTVSS | high polyreactivity |
| QVQLVESGGGLVQAGGSLRLSCAASGFTITQYGMGWYRQAPGKERELVADITYSGGDTYYADSVKGRFTISRDNAKNTVYLQMNSLKPEDTAVYFCAAYSWKYCFVWGYVYWGQGTQVTVSS | high polyreactivity |
| QVQLVESGGGLVQAGGSLRLSCAASGFTIVTYAMGWYRQAPGKERELVAAISKSGGTTYYADSVKGRFTISRDNAKNTVYLQMNSLKPEDTAVYYCNKRWYIARPVDRYRYYYWGQGTQVTVSS | high polyreactivity |
| QVQLVESGGGLVQAGGSLRLSCAASGFTIVYYAMGWYRQAPGKERELVAAITWSGGNTYYADSVKWRITISRDNAKNTVYLHMNSLKPEDNAVYYCAASPRGRRTTVGYPRRPFDYWGLGTQVTVSS | high polyreactivity |
| QVQLVESGGGLVQAGGSLRLSCAASGFTIWAYTMGCYRQAPGKEREFVADITSRGGSTFYADSVKGRFTISRDNAKNTVYLQMNSLKPEDTAVDYCAAEGFDTRMYYWGQGTQVTVSS | high polyreactivity |
| QVQLVESGGGLVQAGGSLRLSCAASGFTIWDYAMGWYRQAPGKERELVAAISWSGGSTYYADSVKGRFTISRDNAKNTVYLQMNSLKPEDTAVYYCNAVHYSHHGYDYWGQGTQVTVSS | low polyreactivity |
| QVQLVESGGGLVQAGGSLRLSCAASGFTIWRYAMGWYRQAPGKERELVAAISWRGGSTYYADSVKGRFTISRDNAKNTVYLQMNSLKPEDTAVYYCAAAYNLPPGYDYWGLGTQVTVSS | high polyreactivity |
| QVQLVESGGGLVQAGGSLRLSCAASGFTIWWYAMGWSRRAPGKERELVATITSGGRTNYAYSVKGRFTISRDNAKNTVYLQMTSLKPEDTAVYYCATRQLSKVKDMDYWGQGTQVTVSS | high polyreactivity |
| QVQLVESGGGLVQAGGSLRLSCAASGFTIYRYAMGWYRQAPGKERELVATIRRGGSTKYADSVKGRFTISRDNAKNTVYLQMNSLKPEDTAVYYCNARYYAAPDKYYYWGQGTQVTVSS | low polyreactivity |
| QVQLVESGGGLVQAGGSLRLSCAASGFTIYYYTMGWYRQAHGKERELVAAITWRGGSTNYADSVKGRFTISRDNAKNTVYLQMNSLKPEDTAVYYCAAVTYWFWPGMDYWGQGTQVTVSS | low polyreactivity |
| QVQLVESGGGLVQAGGSLRLSCAASGFTLAGYDMGWSRQAPGKERELVATLSTYADSVKGRFTISRDNAKNTVYLQMNSLKPEDTAVYYCAKKYVWTHNYWGQGTQVTVSS | low polyreactivity |
| QVQLVESGGGLVQAGGSLRLSCAASGFTLARYAMGWYRQAPGKERELVAAITKRGGSTYYADSVKGRFTISRDNAKNTVYLQMNSLKPEDTAVYYCATYKRSSHYDYWGQGTQVTVSS | high polyreactivity |
| QVQLVESGGGLVQAGGSLRLSCAASGFTLARYAMGWYRQAPGKERELVAGITGGGSTYYADSVKGRFTISRDNAKNTVYLQMNSVKPEDTAVYYCNARTYWKSRLKQYNYWGQVTQVTVSS | high polyreactivity |

From the nanobody polyreactivity screen of Harvey et al. (2022)
